Consider five molecules from patent US20140087995A1 (published 2014).

Numbered stars: 1 amine (or outer) side, 2 acyl side, 3 side chain; on linkers, the order of the positions; unused ones are H or OH. Bridge positions count the residues as written; N and C are the ends. Side chains are listed from the residue outwards. Ends that are not written are not given here. * marks the point of attachment. C20 diacid = O=C(O)CCCCCCCCCCCCCCCCCCC(=O)*; γGlu = O=C(O)[C@H](CCC(=O)[*:2])N[*:1]

The target in experiment [1] is T1, rat amylin receptor (rat calcitonin receptor + rat RAMP 3) (rat, UniProt P32214 25-516; Q9JJ73 23-147).
T1 construct: whole, on cells; Membranes prepared from transiently transfected BHK tk'ts 13 cells; also called rAmylin-R; rat amylin 3(a) receptor
T1 sequence (looked up) 1: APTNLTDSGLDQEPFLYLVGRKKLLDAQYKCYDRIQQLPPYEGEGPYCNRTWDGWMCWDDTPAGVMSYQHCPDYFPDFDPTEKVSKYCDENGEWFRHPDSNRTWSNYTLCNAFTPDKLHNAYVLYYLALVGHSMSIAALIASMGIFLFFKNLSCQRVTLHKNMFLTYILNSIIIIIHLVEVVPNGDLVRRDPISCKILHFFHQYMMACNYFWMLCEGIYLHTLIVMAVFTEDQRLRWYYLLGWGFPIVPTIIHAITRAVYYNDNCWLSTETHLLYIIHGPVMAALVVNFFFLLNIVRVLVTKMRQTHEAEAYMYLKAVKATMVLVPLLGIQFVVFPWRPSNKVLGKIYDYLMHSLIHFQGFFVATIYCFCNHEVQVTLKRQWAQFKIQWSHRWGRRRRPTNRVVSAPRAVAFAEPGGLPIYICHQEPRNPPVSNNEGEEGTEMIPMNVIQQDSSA
T1 sequence (looked up) 2: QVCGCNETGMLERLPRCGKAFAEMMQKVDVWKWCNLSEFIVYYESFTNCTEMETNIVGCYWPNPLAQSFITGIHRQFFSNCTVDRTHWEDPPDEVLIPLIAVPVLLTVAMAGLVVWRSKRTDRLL
Kind of experiment: SPA competition vs 125I-rat amylin, membranes (Assay VI).

Experiment [2] has as its target T2, rat calcitonin receptor (rat, UniProt P32214 25-516).
T2 construct: whole, on cells; Membranes prepared from transiently transfected BHK tk'ts 13 cells; also called rCTR; rat calcitonin (a) receptor
T2 sequence (looked up): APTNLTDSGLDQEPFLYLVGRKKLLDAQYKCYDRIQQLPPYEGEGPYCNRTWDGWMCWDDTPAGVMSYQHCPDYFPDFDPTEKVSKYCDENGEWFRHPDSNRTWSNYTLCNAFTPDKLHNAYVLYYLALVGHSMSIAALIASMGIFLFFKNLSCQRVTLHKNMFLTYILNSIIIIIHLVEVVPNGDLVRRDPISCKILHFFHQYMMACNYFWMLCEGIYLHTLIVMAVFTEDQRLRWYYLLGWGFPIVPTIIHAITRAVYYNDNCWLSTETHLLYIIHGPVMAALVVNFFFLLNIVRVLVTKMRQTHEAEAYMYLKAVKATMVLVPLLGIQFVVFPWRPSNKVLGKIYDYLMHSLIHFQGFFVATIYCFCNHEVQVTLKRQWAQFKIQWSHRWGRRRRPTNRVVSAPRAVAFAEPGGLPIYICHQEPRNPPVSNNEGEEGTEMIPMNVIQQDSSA
Description: SPA competition vs 125I-calcitonin, membranes (Assay VIII).

The target in experiment [3] is T2, rat calcitonin receptor. Kind of experiment: ratio of IC50 on rat calcitonin receptor to IC50 on rat amylin receptor.
The target of experiment [4] is T3, human calcitonin receptor (human, UniProt P30988 25-474).
T3 construct: whole, on cells; Membranes from stably transfected BHK cells; also called hCTR; hCT
T3 sequence (looked up): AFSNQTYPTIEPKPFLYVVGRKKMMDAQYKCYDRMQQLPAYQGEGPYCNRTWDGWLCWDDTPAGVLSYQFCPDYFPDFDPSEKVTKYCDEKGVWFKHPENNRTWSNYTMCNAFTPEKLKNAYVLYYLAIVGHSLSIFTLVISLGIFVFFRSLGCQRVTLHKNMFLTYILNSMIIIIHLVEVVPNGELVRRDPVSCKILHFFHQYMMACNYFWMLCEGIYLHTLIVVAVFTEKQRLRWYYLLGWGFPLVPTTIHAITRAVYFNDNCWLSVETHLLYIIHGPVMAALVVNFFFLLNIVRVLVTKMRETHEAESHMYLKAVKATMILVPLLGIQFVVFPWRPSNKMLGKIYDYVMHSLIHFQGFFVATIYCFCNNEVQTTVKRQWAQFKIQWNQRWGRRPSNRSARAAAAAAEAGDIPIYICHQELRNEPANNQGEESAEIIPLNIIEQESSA
Kind of experiment: ratio of IC50 on human calcitonin receptor to IC50 on human amylin receptor. Put shortly:
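Scintillation proximity competition binding on cell membranes at 35 ng/μL with SPA beads, in 50 mM Hepes pH 7.4, 1 mM CaCl2, 5 mM MgCl₂, 0.1% OA, 0.02% Tween20. Incubated 120 min at 25° C with shaking. IC₅₀ from one-site competition fit.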

B1: N^ε1-[(4S)-4-carboxy-4-(19-carboxynonadecanoylamino)butanoyl]-[Glu14,Arg17,Pro21,Pro27,Pro34,Glu35]-h-amylin (peptide)
peptide: K([γGlu-C20 diacid])CNTATCATQRLAEFLRHSSPNFGAIPSSTNVGPETY-NH2
modifications: disulfide 2-7; N-terminus assumed
SMILES: CC[C@H](C)[C@H](NC(=O)[C@H](C)NC(=O)CNC(=O)[C@H](Cc1ccccc1)NC(=O)[C@H](CC(N)=O)NC(=O)[C@@H]1CCCN1C(=O)[C@H](CO)NC(=O)[C@H](CO)NC(=O)[C@H](Cc1c[nH]cn1)NC(=O)[C@H](CCCNC(=N)N)NC(=O)[C@H](CC(C)C)NC(=O)[C@H](Cc1ccccc1)NC(=O)[C@H](CCC(=O)O)NC(=O)[C@H](C)NC(=O)[C@H](CC(C)C)NC(=O)[C@H](CCCNC(=N)N)NC(=O)[C@H](CCC(N)=O)NC(=O)[C@@H](NC(=O)[C@H](C)NC(=O)[C@@H]1CSSC[C@H](NC(=O)[C@@H](N)CCCCNC(=O)CC[C@H](NC(=O)CCCCCCCCCCCCCCCCCCC(=O)O)C(=O)O)C(=O)N[C@@H](CC(N)=O)C(=O)N[C@@H]([C@@H](C)O)C(=O)N[C@@H](C)C(=O)N[C@@H]([C@@H](C)O)C(=O)N1)[C@@H](C)O)C(=O)N1CCC[C@H]1C(=O)N[C@@H](CO)C(=O)N[C@@H](CO)C(=O)N[C@H](C(=O)N[C@@H](CC(N)=O)C(=O)N[C@H](C(=O)NCC(=O)N1CCC[C@H]1C(=O)N[C@@H](CCC(=O)O)C(=O)N[C@H](C(=O)N[C@@H](Cc1ccc(O)cc1)C(N)=O)[C@@H](C)O)C(C)C)[C@@H](C)O
What is called IC50 is the point on the concentration scale where inhibition reaches its midpoint. B1: the concentration for half-maximal inhibition (IC50) in experiment [1] stood at 0.164 nM; with rat calcitonin receptor [2] it was 10.4 nM. In the experiment with rat calcitonin receptor [3], the “Ratio rCT/rAmylin binding” value turned out to be 63.2. Further, the “Ratio hCT/hAmylin binding” value in experiment [4] came out at 13.3.

B2: N^-1-[(4S)-4-carboxy-4-(19-carboxynonadecanoylamino)butanoyl]-Gly[Arg1,Ala14,Arg17,Pro21,Pro27,His34]-h-amylin (peptide)
peptide: {C20 diacid-γGlu}-GRCNTATCATQRLAAFLRHSSPNFGAIPSSTNVGHNTY-NH2
modifications: disulfide 3-8
SMILES: CC[C@H](C)[C@H](NC(=O)[C@H](C)NC(=O)CNC(=O)[C@H](Cc1ccccc1)NC(=O)[C@H](CC(N)=O)NC(=O)[C@@H]1CCCN1C(=O)[C@H](CO)NC(=O)[C@H](CO)NC(=O)[C@H](Cc1c[nH]cn1)NC(=O)[C@H](CCCNC(=N)N)NC(=O)[C@H](CC(C)C)NC(=O)[C@H](Cc1ccccc1)NC(=O)[C@H](C)NC(=O)[C@H](C)NC(=O)[C@H](CC(C)C)NC(=O)[C@H](CCCNC(=N)N)NC(=O)[C@H](CCC(N)=O)NC(=O)[C@@H](NC(=O)[C@H](C)NC(=O)[C@@H]1CSSC[C@H](NC(=O)[C@H](CCCNC(=N)N)NC(=O)CNC(=O)CC[C@H](NC(=O)CCCCCCCCCCCCCCCCCCC(=O)O)C(=O)O)C(=O)N[C@@H](CC(N)=O)C(=O)N[C@@H]([C@@H](C)O)C(=O)N[C@@H](C)C(=O)N[C@@H]([C@@H](C)O)C(=O)N1)[C@@H](C)O)C(=O)N1CCC[C@H]1C(=O)N[C@@H](CO)C(=O)N[C@@H](CO)C(=O)N[C@H](C(=O)N[C@@H](CC(N)=O)C(=O)N[C@H](C(=O)NCC(=O)N[C@@H](Cc1c[nH]cn1)C(=O)N[C@@H](CC(N)=O)C(=O)N[C@H](C(=O)N[C@@H](Cc1ccc(O)cc1)C(N)=O)[C@@H](C)O)C(C)C)[C@@H](C)O
For B2, the figures for the IC50 (in experiment [1]; with rat calcitonin receptor [2]) were 8.07 nM and 492 nM, respectively. In addition, the “Ratio rCT/rAmylin binding” value with rat calcitonin receptor [3] came out at 60.9. The “Ratio hCT/hAmylin binding” value in experiment [4] was determined as 68.6.

B3: N{-1}-[(4S)-4-carboxy-4-(19-carboxynonadecanoylamino)butanoyl]-Gly[Arg1,His14,Arg17,Pro21,Pro27]-h-amylin (peptide)
peptide: {C20 diacid-γGlu}-GRCNTATCATQRLAHFLRHSSPNFGAIPSSTNVGSNTY-NH2
modifications: disulfide 3-8
SMILES: CC[C@H](C)[C@H](NC(=O)[C@H](C)NC(=O)CNC(=O)[C@H](Cc1ccccc1)NC(=O)[C@H](CC(N)=O)NC(=O)[C@@H]1CCCN1C(=O)[C@H](CO)NC(=O)[C@H](CO)NC(=O)[C@H](Cc1c[nH]cn1)NC(=O)[C@H](CCCNC(=N)N)NC(=O)[C@H](CC(C)C)NC(=O)[C@H](Cc1ccccc1)NC(=O)[C@H](Cc1c[nH]cn1)NC(=O)[C@H](C)NC(=O)[C@H](CC(C)C)NC(=O)[C@H](CCCNC(=N)N)NC(=O)[C@H](CCC(N)=O)NC(=O)[C@@H](NC(=O)[C@H](C)NC(=O)[C@@H]1CSSC[C@H](NC(=O)[C@H](CCCNC(=N)N)NC(=O)CNC(=O)CC[C@H](NC(=O)CCCCCCCCCCCCCCCCCCC(=O)O)C(=O)O)C(=O)N[C@@H](CC(N)=O)C(=O)N[C@@H]([C@@H](C)O)C(=O)N[C@@H](C)C(=O)N[C@@H]([C@@H](C)O)C(=O)N1)[C@@H](C)O)C(=O)N1CCC[C@H]1C(=O)N[C@@H](CO)C(=O)N[C@@H](CO)C(=O)N[C@H](C(=O)N[C@@H](CC(N)=O)C(=O)N[C@H](C(=O)NCC(=O)N[C@@H](CO)C(=O)N[C@@H](CC(N)=O)C(=O)N[C@H](C(=O)N[C@@H](Cc1ccc(O)cc1)C(N)=O)[C@@H](C)O)C(C)C)[C@@H](C)O
notes: also called compound 99
Take B3: the IC50 in experiment [1] was found to be 2.7 nM; with rat calcitonin receptor [2] it was 216 nM. The “Ratio rCT/rAmylin binding” value in the experiment with rat calcitonin receptor [3] worked out at 79.8. For the same molecule, the “Ratio hCT/hAmylin binding” value in experiment [4] was 100.
For {C20 diacid-γGlu}-GRCNTATCATQRLAAFLRHSSPNFGAIPSSTNVGPNTY-NH2 (disulfide 3-8), the concentration for half-maximal inhibition (IC50) in experiment [1] amounted to 0.436 nM; with rat calcitonin receptor [2], 56.3 nM. The “Ratio rCT/rAmylin binding” value with rat calcitonin receptor [3] was found to be 129. The “Ratio hCT/hAmylin binding” value in experiment [4] came to 26.5.

B4: N^-1-[(4S)-4-carboxy-4-(19-carboxynonadecanoylamino)butanoyl]-Gly[Arg1,His14,Arg17,Pro21,Pro27,Pro34]-h-amylin (peptide)
peptide: {C20 diacid-γGlu}-GRCNTATCATQRLAHFLRHSSPNFGAIPSSTNVGPNTY-NH2
modifications: disulfide 3-8
SMILES: CC[C@H](C)[C@H](NC(=O)[C@H](C)NC(=O)CNC(=O)[C@H](Cc1ccccc1)NC(=O)[C@H](CC(N)=O)NC(=O)[C@@H]1CCCN1C(=O)[C@H](CO)NC(=O)[C@H](CO)NC(=O)[C@H](Cc1c[nH]cn1)NC(=O)[C@H](CCCNC(=N)N)NC(=O)[C@H](CC(C)C)NC(=O)[C@H](Cc1ccccc1)NC(=O)[C@H](Cc1c[nH]cn1)NC(=O)[C@H](C)NC(=O)[C@H](CC(C)C)NC(=O)[C@H](CCCNC(=N)N)NC(=O)[C@H](CCC(N)=O)NC(=O)[C@@H](NC(=O)[C@H](C)NC(=O)[C@@H]1CSSC[C@H](NC(=O)[C@H](CCCNC(=N)N)NC(=O)CNC(=O)CC[C@H](NC(=O)CCCCCCCCCCCCCCCCCCC(=O)O)C(=O)O)C(=O)N[C@@H](CC(N)=O)C(=O)N[C@@H]([C@@H](C)O)C(=O)N[C@@H](C)C(=O)N[C@@H]([C@@H](C)O)C(=O)N1)[C@@H](C)O)C(=O)N1CCC[C@H]1C(=O)N[C@@H](CO)C(=O)N[C@@H](CO)C(=O)N[C@H](C(=O)N[C@@H](CC(N)=O)C(=O)N[C@H](C(=O)NCC(=O)N1CCC[C@H]1C(=O)N[C@@H](CC(N)=O)C(=O)N[C@H](C(=O)N[C@@H](Cc1ccc(O)cc1)C(N)=O)[C@@H](C)O)C(C)C)[C@@H](C)O
For B4, the IC50 in experiment [1] was determined as 0.674 nM; with rat calcitonin receptor [2], 65.9 nM. The “Ratio rCT/rAmylin binding” value with rat calcitonin receptor [3] was 97.7. Further, in experiment [4], the “Ratio hCT/hAmylin binding” value is 36.2.
